Laboratory results as given in patent US20070249534A1, “Novel medicament for treating neurodegenerative diseases” (priority 2001, published 2007).
Where two headings read alike, the source gives them in different places. Where a SMILES comes first, the peptide text is derived from it. Where no end group is shown, it is not given here. [ ]: non-standard residue; d: D form. Sec = N[C@@H](C[SeH])C(=O)O

How the values were obtained:
Dami cells [1] = tested on: Dami cells
Dami cells [2] = conditions: stated as known; cited from earlier work
Dami cells [3] = test: Cytotoxicity-inhibitory (cell death-inhibitory) activity assay using Dami cells; format: cell-based; conditions: for cell death-inhibitory activity (in words): selenoprotein P and fragments purified from plasma
Experimental: Using Dami cells (described in Greenberg S. M. et al., Blood, vol. 72, p. 1968-1977 (1988)) for use in assay system for cytotoxicity-inhibitory activity, the cells were washed twice with assay medium (50% PBS/SA/0.03% HSA (manufactured by SIGMA) or SA/0.05% BSA free from fatty acid (WAKO)/4 μM long-chain polyvalent fatty acid (e.g. arachidonic acid, linoleic acid or linolenic acid)) and suspended in the same medium at 3×10^4 cells/ml. The cell suspension was added to a 96-well plate in each 200 μl for wells for sample addition or in each 100 μl for wells for serial dilution. […] After stirring, a serial dilution was made with the wells containing 100 μl cell suspension. The plate was incubated at 37° C. in CO2 incubator for 4 to 5 days followed by assessment of survival of the cells.

Rolling Mouse Nagoya [4] = conditions: intraperitoneal administration; cited from earlier work
[5] = Stability of selenoprotein P and its fragments to heat, denaturing agent, pH, protease in blood; format: physicochemical; conditions: compared to common enzymes
Dami cells [6] = test: Toxicity of selenium-containing substances to cells in culture; conditions: concentration where selenocystine / other selenium-containing substances show toxicity
Rolling Mouse Nagoya [7] = test: Effect of selenoprotein P on ataxia (stumbling index) in Rolling Mouse Nagoya; format: in vivo
Experimental: In order to confirm the activity to ameliorate ataxia of selenoprotein P, Rolling Mouse Nagoya, the established model of ataxia, was used with a stumbling index. Animals were divided into the following groups each consisting of ten animals: a control group intraperitoneally administered with saline (0.25 mL/head/week); a group intraperitoneally administered with a low dose of selenoprotein P (0.05 mg/head/week; 0.25 mL/head/week); and a group intraperitoneally administered with a high dose of selenoprotein P (0.5 mg/head/week; 0.25 mL/head/week). The animals received intraperitoneal administration once a week for three weeks.
The animals were Rolling Mouse Nagoya (113 animals, five to eight months old, weighing 19.1 to 36.2 g) regardless of sex. Grouping of the animals was based on the weight measured on the day before initiation of the experiment and a stumbling index measured before initiation of the experiment. A quantity of voluntary motion was measured during thirty minutes immediately before administration (during 30-0 min. before administration), immediately after administration (during 0-30 min. after administration), one hour after administration (during 60-90 min. after administration), three hours after administration (during 180-210 min. after administration), and seven hours after administration (during 420-450 min. after administration) with a device for measuring voluntary motion. Stumbling of animals was counted with a video camera set upon the device for measuring voluntary motion during the same time period as that of measurement of voluntary motion. A stumbling index was calculated by the formula: [Count of stumbling (count/30 min.)]/[Voluntary motion (count/30 min.)]. The results are shown in FIGS. 1 to 3 wherein #: p<0.05, ##: p<0.01, being significant as compared to values before administration (paired t-test); *: p<0.05, being significant as compared to control during the same time period (Turkey test).

N[C@@H](C[Se][Se]C[C@H](N)C(=O)O)C(=O)O [selenocystine]
toxicity (in words) (Dami cells [1]): exhibited toxicity
toxicity when added alone to cell culture (Dami cells [2]): fairly strong toxicity

CC[C@H](C)[C@H](NC(=O)[C@H](CC(C)C)NC(=O)[C@H](Cc1c[nH]cn1)NC(=O)[C@H](CCCNC(=N)N)NC(=O)[C@H](CO)NC(=O)[C@H](Cc1c[nH]cn1)NC(=O)[C@H](CO)NC(=O)[C@H](CO)NC(=O)[C@H](C[SeH])NC(=O)[C@H](CO)NC(=O)[C@@H](N)CCCNC(=N)N)C(=O)N[C@@H](Cc1ccccc1)C(=O)N[C@@H](CCC(=O)O)C(=O)N[C@@H](CCCCN)C(=O)O [Peptide 6, Arg Ser Xaa Ser Ser His Ser Arg His Leu Ile Phe Glu Lys] (H-RS[Sec]SSHSRHLIFEK-OH)
cytotoxicity-inhibitory activity (in words) (Dami cells [3]; Dami cells, peptides of Preparation 2): most effectively at the lowest concentration

NC(=O)[C@@H]1CCCN1C(=O)[C@H](Cc1cnc[nH]1)NC(=O)[C@@H]1CCC(=O)N1 [TRH, thyrotropin-releasing hormone]
duration of the efficacy (Rolling Mouse Nagoya [4]): about 1 hours

Lys Arg Cys Ile Asn Gln Leu Leu Cys Lys Leu Pro Thr Asp Ser Glu Leu Ala Pro Arg Ser Xaa Cys Cys H is Cys Arg H is Leu Ile Phe Glu Lys (KRCINQLLCKLPTDSELAPRS[Sec]CCHCRHLIFEK; cysteine pairing not given here; listed as Human plasma) [SEQ ID NO: 3, peptide purified under reduced condition from selenoprotein P fragment]
cell death-inhibitory activity (in words) (Dami cells [3]): had the cell death-inhibiting activity

B1: selenoprotein P (protein)
chain: ESQDQSSLCKQPPAWSIRDQDPMLNSNGSVTVVALLQASUYLCILQASKLEDLRVKLKKEGYSNISYIVVNHQGISSRLKYTHLKNKVSEHIPVYQQEENQTDVWTLLNGSKDDFLIYDRCGRLVYHLGLPFSFLTFPYVEEAIKIAYCEKKCGNCSLTTLKDEDFCKRVSLATVDKTVETPSPHYHHEHHHNHGHQHLGSSELSENQQPGAPNAPTHPAPPGLHHHHKHKGQHRQGHPENRDMPASEDLQDLQKKLCRKRCINQLLCKLPTDSELAPRSUCCHCRHLIFEKTGSAITUQCKENLPSLCSUQGLRAEENITESCQURLPPAAUQISQQLIPTEASASURUKNQAKKUEUPSN
modifications: non-natural residues
stability to heat, a denaturing agent, a broad range of pH or protease in blood [5]: rather stable
toxicity (in words) (Dami cells [6]): no strong toxicity
stumbling index compared with values before administration (Rolling Mouse Nagoya [7]; high dose 0.5 mg/head/week i.p., 420-450 min Week 1, 60-90, 180-210, 420-450 min Week 2, 60-90 min Week 3): significant decrease
stumbling index compared with control group, significance (Rolling Mouse Nagoya [7]; high dose 0.5 mg/head/week i.p., during 60-90 min. after administration on Week 1): significant decrease
stumbling index compared with control group (Rolling Mouse Nagoya [7]; high dose 0.5 mg/head/week i.p., each time period on Week 1, Week 2 and Week 3): remained lower than the control group
stumbling index, low dose group (Rolling Mouse Nagoya [7]; low dose 0.05 mg/head/week i.p.): no significant decrease
cell death-inhibitory activity (in words) (Dami cells [3]): much lower than that of the fragment thereof

B2: SEQ ID NO: 2: selenoprotein P fragment, 260th to 362nd amino acids (103 C-terminal residues) (protein, listed as Human plasma)
chain: KRCINQLLCKLPTDSELAPRS[code U]CCHCRHLIFEKTGSAIT[code U]QCKENLPSLCS[code U]QGLRAEENITESCQ[code U]RLPPAA[code U]QISQQLIPTEASAS[code U]R[code U]KNQAKK[code U]E[code U]PSN
modifications: ends and bridges not checked
cell death-inhibitory activity (in words) (Dami cells [3]): having the cell death-inhibiting activity
